According to patent US20160046684A1, “Methods and compositions for treatment of PTP1B-related diseases” (BROWN UNIVERSITY, priority 2014, published 2016):
Residue numbers refer to the chain shown, from its start. Numbers in names are those of the source. Entries after “also recorded” stand apart in the source; their conditions may differ.

B1: PTP1BYAYA: mutant of PTP1B1-301 having point mutations at Y152 and Y153 (Y152A/Y153A) within the L11 loop (protein)
chain: MEMEKEFEQIDKSGSWAAIYQDIRHEASDFPCRVAKLPKNKNRNRYRDVSPFDHSRIKLHQEDNDYINASLIKMEEAQRSYILTQGPLPNTCGHFWEMVWEQKSRGVVMLNRVMEKGSLKCAQYWPQKEEKEMIFEDTNLKLTLISEDIKSAATVRQLELENLTTQETREILHFHYTTWPDFGVPESPASFLNFLFKVRESGSLSPEHGPVVVHCSAGIGRSGTFCLADTCLLLMDKRKDPSSVDIKKVLLEMRKFRMGLIQTADQLRFSYLAVIEGAKFIMGDSSVQDQWKELSHEDLEP
modifications: The sequence was designed and synthesized
notes: mutant of PTP1B1-301 having point mutations at Y152 and Y153 (Y152A/Y153A) within the L11 loop
B2: PTP1B1-284/Δ7: truncated PTP1B, residues 1-284, lacking the α7 helix (SEQ ID NO: 3) (protein)
chain: MEMEKEFEQIDKSGSWAAIYQDIRHEASDFPCRVAKLPKNKNRNRYRDVSPFDHSRIKLHQEDNDYINASLIKMEEAQRSYILTQGPLPNTCGHFWEMVWEQKSRGVVMLNRVMEKGSLKCAQYWPQKEEKEMIFEDTNLKLTLISEDIKSYYTVRQLELENLTTQETREILHFHYTTWPDFGVPESPASFLNFLFKVRESGSLSPEHGPVVVHCSAGIGRSGTFCLADTCLLLMDKRKDPSSVDIKKVLLEMRKFRMGLIQTADQLRFSYLAVIEGAKFIMGD
modifications: The sequence was designed and synthesized
B3: Wild-type PTP1B1-301: PTP1B catalytic domain, amino acid residues 1-301 (SEQ ID NO: 2) (protein)
chain: B1 chain with A152Y, A153Y
modifications: The sequence was designed and synthesized
B4: PTP1BY153F: PTP1B1-301 mutant with mutation in the L11 loop (protein, UniProt P18031 1-301, looked up, variant Y153F)
chain: B1 chain with A152Y, A153F
B5: PTP1BG283P: PTP1B1-301 mutant with point mutation in the α7 helix (protein, UniProt P18031 1-301, looked up, variant G283P)
chain: B1 chain with A152Y, A153Y, G283P
B6: PTP1BF194A: PTP1B1-301 mutant with mutation in the α3 helix (protein, UniProt P18031 1-301, looked up, fragment F194A)
chain: B1 chain with A152Y, A153Y, F194A
B7: PTP1BL294A: PTP1B1-301 mutant with point mutation in the α7 helix (protein, UniProt P18031 1-301, looked up, variant L294A)
chain: B1 chain with A152Y, A153Y, L294A
B8: PTP1BD298A: PTP1B1-301 mutant with point mutation in the α7 helix (protein, UniProt P18031 1-301, looked up, variant D298A)
chain: B1 chain with A152Y, A153Y, D298A
B9: PTP1BS295A: PTP1B1-301 mutant with point mutation in the α7 helix (protein, UniProt P18031 1-301, looked up, variant S295A)
chain: B1 chain with A152Y, A153Y, S295A
B10: PTP1BE297A: PTP1B1-301 mutant with point mutation in the α7 helix (protein, UniProt P18031 1-301, looked up, variant E297A)
chain: B1 chain with A152Y, A153Y, E297A
B11: PTP1BL195A: PTP1B1-301 mutant with mutation in the α3 helix (protein, UniProt P18031 1-301, looked up, variant L195A)
chain: B1 chain with A152Y, A153Y, L195A
B12: PTP1BS190A: PTP1B1-301 mutant with mutation in the α3 helix (protein, UniProt P18031 1-301, looked up, variant S190A)
chain: B1 chain with A152Y, A153Y, S190A
B13: PTP1BK292A: PTP1B1-301 mutant with point mutation in the α7 helix (protein, UniProt P18031 1-301, looked up, variant K292A)
chain: B1 chain with A152Y, A153Y, K292A
B14: PTP1BS295A/E297A: PTP1B1-301 double mutant in the α7 helix (protein, UniProt P18031 1-301, looked up, variant S295A E297A)
chain: B1 chain with A152Y, A153Y, S295A, E297A
B15: PTP1BW291A: PTP1B1-301 mutant with point mutation in the α7 helix (protein, UniProt P18031 1-301, looked up, variant W291A)
chain: B1 chain with A152Y, A153Y, W291A
B16: PTP1BF196A: PTP1B1-301 mutant with mutation in the α3 helix (protein, UniProt P18031 1-301, looked up, variant F196A)
chain: B1 chain with A152Y, A153Y, F196A
B17: PTP1BY153A: PTP1B1-301 mutant with mutation in the L11 loop (protein, UniProt P18031 1-301, looked up, variant Y153A)
chain: B1 chain with A152Y
B18: PTP1BY152F: PTP1B1-301 mutant with mutation in the L11 loop (protein, UniProt P18031 1-301, looked up, variant Y152F)
chain: B1 chain with A152F, A153Y
B19: PTP1BY152A: PTP1B1-301 mutant with mutation in the L11 loop (protein, UniProt P18031 1-301, looked up, variant Y152A)
chain: B1 chain with A153Y

tested on: PTP1B; assay: Phosphatase activity of PTP1B constructs against pNPP (enzyme assay); assay type: biochemical, human; conditions: FIG. 24, 25, 32B
Method: Phosphatase activity of PTP1B against the general PTP/DUSP substrate, p-nitrophenyl phosphate (pNPP), was tested in 50 mM HEPES pH 7.5, 150 mM NaCl, 0.5 mM TCEP. 40 μl of enzyme at a 1.5 μM concentration was added to 60 μl of pNPP substrate resuspended in the reaction buffer. See, FIG. 25. The final concentrations of pNPP used in this experiment were […]. The enzyme was incubated with the substrate at 30° C. for 30 min, after which 100 μl of 1 M NaOH was added to a final concentration of 0.5 M NaOH to quench the reaction. Absorbance was measured at 405 nm and the final concentration of p-nitrophenol (pNP) was calculated using the molar extinction coefficient of 18000 M-1 cm-1. A control reaction in which substrate was incubated in the absence of enzyme was subtracted from all other experimental values. All experiments were performed in triplicate.
Enzyme assays were performed at pH 7.5 with 0.15 μM PTP1B to compare the activities of wild-type PTP1B1-301 to mutants with mutations in the L11 loop: PTP1BY152A/F, PTP1BY153A/F, and PTP1BYAYA. See, FIG. 17. […] Ibid. […] Ibid. […] Ibid. […] Ibid. […] Ibid. […] Ibid.
Enzyme assays were performed at pH 7.5 with 0.015 μM PTP1B to compare the activities of wild-type PTP1B1-301 to mutants with mutations in the α3 helix such as PTP1BN193A. See, FIG. 27. […] Ibid. […] Ibid. […] Ibid. […] Ibid. […] Ibid. […] Ibid.
An enzyme assay was used to compare the activity of wild-type PTP1B1-301 to the activity of PTP1B1-284 P185G. See, FIG. 15. Enzyme assays were performed at pH 7.5 with 0.015 μM PTP1B to compare the activities of wild-type PTP1B1-301 to mutants with mutations in the α7 helix. See, FIG. 32A. In one embodiment, these point mutations were made in an amino acid sequence substantially similar to SEQ ID NO: 2.

Molecule | phosphatase activity compared with other constructs (in words)
B1 | much lower

same assay, conditions: FIG. 24, 25, 32B; listed as PTP1BΔ7

Molecule | phosphatase activity compared with other constructs (in words)
B2 | lack the activity exhibited by wild-type PTP1B1; also recorded: much lower

same assay, conditions: pNPP substrate, pH 7.5, 0.015 μM PTP1B (FIG. 27, 32A, 32B)

Molecule | Km | kcat
B3 | 460 ± 60 µM | 6.2 ± 0.3 s⁻¹
B4 | 620 ± 70 µM | 6.0 ± 0.2 s⁻¹
B5 | 850 ± 70 µM | 4.9 ± 0.2 s⁻¹
B6 | 390 ± 50 µM | 5.3 ± 0.3 s⁻¹
B7 | 730 ± 50 µM | 5.1 ± 0.1 s⁻¹
B8 | 480 ± 100 µM | 6.3 ± 0.4 s⁻¹
B9 | 800 ± 70 µM | 4.5 ± 0.1 s⁻¹
B10 | 720 ± 120 µM | 4.6 ± 0.3 s⁻¹
B11 | 290 ± 30 µM | 4.1 ± 0.1 s⁻¹
B12 | 370 ± 50 µM | 6.1 ± 0.3 s⁻¹
B13 | 380 ± 50 µM | 6.1 ± 0.3 s⁻¹
B14 | 580 ± 130 µM | 2.6 ± 0.13 s⁻¹
B15 | 990 ± 150 µM | 4.5 ± 0.3 s⁻¹
B16 | 320 ± 40 µM | 4.2 ± 0.2 s⁻¹
B2 | 970 ± 100 µM | 1.7 ± 0.07 s⁻¹

same assay, conditions: pNPP substrate, pH 7.5, 0.15 μM PTP1B (FIG. 17)

Molecule | Km | kcat
B3 | 460 ± 60 µM | 6.2 ± 0.3 s⁻¹
B4 | 900 ± 80 µM | 3.4 ± 0.3 s⁻¹
B17 | 930 ± 180 µM | 3.6 ± 0.29 s⁻¹
B1 | 450 ± 40 µM | 1.8 ± 0.05 s⁻¹
B18 | 950 ± 40 µM | 3.4 ± 0.1 s⁻¹
B19 | 960 ± 40 µM | 3.0 ± 0.06 s⁻¹

tested on: not listed separately; assay: Circular dichroism thermal denaturation (melting temperature); assay type: physicochemical; conditions: CD spectropolarimetry, thermal denaturation at 208 nm, 2.5 μM protein
Method: Circular dichroism (CD) spectropolarimetry was used to measure the melting temperatures of PTP1BYAYA, PTP1B1-301, and PTP1B1-284. CD measurements were performed on a Jasco J-815 CD spectropolarimeter. PTP1B samples were dialyzed at 4° C. into 10 mM sodium phosphate, pH 6.8, 150 mM NaCl. Samples were then diluted to a protein concentration of 2.5 μM and placed in a 0.2-cm glass cuvette. Wavelength scans were performed in the far-UV region from 260 to 195 nm at 25° C. at a speed of 20 nm/min. Thermal denaturation scans were performed at 208 nm from 25 to 90° C. at a scan speed of 1° C./min. Raw data were processed using the denatured protein analysis routine implemented in the SepctraAnalysis software and converted to mean residue molar ellipticity using the following equation: [θ]=θ/(10×C×1×n), where θ is ellipticity, C is the molar concentration, 1 is the cell path length in centimeters, and n is the number of residues. Plots are the average of three replicate scans.

Molecule | melting point (Tm)
B3 | 55.46 °C
B17 | 53.75 °C
B1 | 50.41 °C
B19 | 53.89 °C
B2 | 54.9 °C

same assay, conditions: CD spectropolarimetry, thermal denaturation at 208 nm, 2.5 μM protein; listed as PTP1B1-284

Molecule | melting point (Tm)
B2 | 54.87 °C

same assay, conditions: difference to PTP1B1-284

Molecule | melting temperature lower than PTP1B1-284
B1 | about 4.5 °C

same assay, conditions: difference to PTP1B1-301

Molecule | melting temperature lower than for PTP1B1-301
B1 | about 5 °C
